B1: synthetic peptide MP-1 (18-amino acid CaM-binding domain of maize NPG1) (peptide)
peptide: VSKGWRLLALILSAQQRF
notes: Chemically synthesized, purity about 95%; also called the synthetic peptide; maize NPG1-synthetic peptide

What was measured:
[1] = biological target: T1, Arabidopsis thaliana CaM isoform 6 (Arabidopsis thaliana, UniProt Q03509 1-149); assay: slot blot of peptide probed with 35S-labeled AtCaM isoform
T1 construct: Used 35S-labeled, unlabeled or HRP-labeled, depending on the assay; also called CaM6; CaM-6

[2] = biological target: T2, Arabidopsis thaliana CaM isoform 2 (Arabidopsis thaliana, UniProt P0DH97 1-149); assay: as above
T2 construct: also called CaM2; CaM-2

[3] = biological target: T3, Arabidopsis thaliana CaM isoform 4 (Arabidopsis thaliana, UniProt P0DH96 1-149); assay: as above
T3 construct: Used 35S-labeled, unlabeled or HRP-labeled, depending on the assay; also called CaM4; CaM-4

bovine CaM (calmodulin) [4] = biological target: T4, bovine CaM (calmodulin) (bovine, UniProt P62157 2-149); assay: gel mobility shift, 4 M urea, CaCl2; 166 pmol CaM and 166 pmol peptide
Excerpt: (§1) To determine the stoichiometry of the CaM-peptide complex, we performed binding studies using the synthetic peptide (MP-1) and CaM in the presence of Ca²⁺ or EGTA. The binding of the synthetic peptide to CaM was detected by a gel mobility shift assay in polyacrylamide gels containing 4 M urea (FIG. 4A). […] In the presence of CaCl₂ the synthetic peptide retarded the migration of CaM in the gel indicating the formation of a complex between the peptide and CaM (FIG. 4A). […] At a molar ratio of 2:1 and 4:1 (peptide:CaM), the entire CaM migrated as a complex, and the band corresponding to the free CaM disappeared (FIG. 4A, lanes 3 and 4).
(§2) The interaction of CaM with synthetic peptide was also analyzed using electrophoretic mobility shift of CaM in the presence of a synthetic peptide. Each of the AtCaM isoforms and bovine CaM (166 pmol) were incubated with increasing concentrations of maize NPG1-synthetic peptide (166, 332, and 664 pmol) in the presence of 4 M urea, in a buffer containing 100 mM Tris-HCl, pH 7.5, and 1 mM CaCl₂ or 5 mM EGTA at room temperature for 1 h in a total volume of […]. Then, […] of sample buffer (0.375 M Tris-HCl, pH 6.8, 30% glycerol, and 0.023% bromphenol blue) was added to the samples and the mixture was electrophoresed in 12% polyacrylamide gels containing 4 M urea or 7.5% glycerol, 0.375 M Tris-HCl, pH 8.8, and either 1 mM CaCl₂ or 5 mM EGTA. The gels were run at a constant voltage of 25 V per gel in an electrode buffer (25 mM Tris-HCl, pH 8.3, 192 mM glycine, and either 1 mM CaCl₂ or 5 mM EGTA). The gels were stained with 0.25% Coomassie Blue R-250 in 7.5% acetic acid and 50% methanol for 1 h and then destained with 30% methanol and 7% acetic acid.

[5] = biological target: T1, Arabidopsis thaliana CaM isoform 6; assay: as above
Excerpt: as §1, §2

[6] = biological target: T2, Arabidopsis thaliana CaM isoform 2; assay: as above
Excerpt: as §1, §2

[7] = biological target: T3, Arabidopsis thaliana CaM isoform 4; assay: as above
Excerpt: as §1, §2

bovine CaM (calmodulin) [8] = biological target: T4, bovine CaM (calmodulin); assay: tryptophan fluorescence spectroscopy, equimolar peptide and CaM (166 pmol each), excitation 290 nm
Method: (§3) FIG. 4A is the analysis of CaM binding to a synthetic 18-amino acid peptide (MP-1, SEQ ID NO:2) by electrophoretic mobility shift polyacrylamide gels with 4 M urea. Lane 1 contained CaM alone (166 pmol), lanes 2-4 contained CaM (166 pmol) and 166, 332 and 664 pmol, respectively of synthetic MP-1. BCaM is bovine CaM, CaM2, CaM4, and CaM6 are the 2, 4, and 6 isoforms of Arabidopsis CaM. […] CaM and MP-1 (166 pmol) were incubated in 5 mM Tris, pH 7.3 and 0.5 mM CaCl₂. The excitation was measured at 290 nm and bandwidth for excitation and emission was 5 nm.
(§4) The tryptophan fluorescence spectra of free and CaM-bound synthetic peptide were recorded with a Hitachi-F-3010/4010 spectrofluorimeter as described in Reddy et al. (1996) supra. NPG1 peptide and AtCaMs (166 pmol each) were mixed in a […] reaction volume. The tryptophan residue in free and CaM-bound synthetic NPG1 peptide was excited at 290 nm and the emission wavelength values were recorded from 300 to 400 nm with a bandwidth of 5 nm in a 5-mm quartz cell at 25° C. Samples were incubated for 1 h at 25° C. prior to spectroscopic measurements. Corrections were made for the protein and solvent blanks.

[9] = biological target: T1, Arabidopsis thaliana CaM isoform 6; assay: as above
Method: as §3, §4

[10] = biological target: T2, Arabidopsis thaliana CaM isoform 2; assay: as above
Method: as §3, §4

[11] = biological target: T3, Arabidopsis thaliana CaM isoform 4; assay: as above
Method: as §3, §4

bovine CaM (calmodulin) [12] = biological target: T4, bovine CaM (calmodulin); assay: tryptophan fluorescence spectroscopy, equimolar peptide and CaM, excitation 290 nm
Method: as §3, §4

[13] = biological target: T1, Arabidopsis thaliana CaM isoform 6; assay: as above
Method: as §3, §4

[14] = biological target: T2, Arabidopsis thaliana CaM isoform 2; assay: as above
Method: as §3, §4

[15] = biological target: T3, Arabidopsis thaliana CaM isoform 4; assay: as above
Method: as §3, §4

| Binder | binding result [1] | binding result [2] | binding result [3] | percent of CaM shifted at a molar ratio of 1:1 (peptide:CaM) (bovine CaM (calmodulin) [4]) | percent of CaM shifted at a molar ratio of 1:1 (peptide:CaM) [5] | percent of CaM shifted at a molar ratio of 1:1 (peptide:CaM) [6] | percent of CaM shifted at a molar ratio of 1:1 (peptide:CaM) [7] | tryptophan fluorescence intensity of the peptide with CaM (free peptide about 0.1) (bovine CaM (calmodulin) [8]) | tryptophan fluorescence intensity of the peptide with CaM (free peptide about 0.1) [9] | tryptophan fluorescence intensity of the peptide with CaM (free peptide about 0.1) [10] | tryptophan fluorescence intensity of the peptide with CaM (free peptide about 0.1) [11] | wavelength of peak tryptophan emission of the peptide with CaM (free peptide about 350 nm) (bovine CaM (calmodulin) [12]) | wavelength of peak tryptophan emission of the peptide with CaM (free peptide about 350 nm) [13] | wavelength of peak tryptophan emission of the peptide with CaM (free peptide about 350 nm) [14] | wavelength of peak tryptophan emission of the peptide with CaM (free peptide about 350 nm) [15] |
| --- | --- | --- | --- | --- | --- | --- | --- | --- | --- | --- | --- | --- | --- | --- | --- |
| ISSKEMVRLKKLVAYWKEQAGKK (Positive control peptide) [KCBP-peptide (CaM-binding peptide of kinesin-like calmodulin binding protein)] | binds | binds | binds | – | – | – | – | – | – | – | – | – | – | – | – |
| B1 | – | – | – | ~50% | ~50% | ~50% | ~50% | ~6.1 | ~6.1 | ~8.4 | ~4.5 | ~315 nm | ~315 nm | ~315 nm | ~315 nm |
| AKLDQGSLLRVKAKLKVAQSSPM [synthetic peptide MP-2 (different region of maize NPG1, negative control)] | no binding | no binding | no binding | – | – | – | – | – | – | – | – | – | – | – | – |

Source: patent US20030061635A1 (published 2003)
